Assay: label from the status in PepcDB records
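Note: failed if final PepcDB status was selected cloned or expressed and not failed if soluble or beyond.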

Row | Sequence | protein production
1 | MCTEFWNSFSNLFTGGRSTNRKIILVLLIMVLSSGVCSADNYVGGIPLTSAHSGTVSGGVYCDSYYGMGDQEAKASNTIEKTFTVPDNANVEWAMLLTNVYCGHMQNNYQGKAKVDFNGKNLGTETLNVPYTYSYNGGNGHVQVNDHVNRVTSDYMMYYDVTGLVKAGKNTAVVKTDPLDSSFDGRIRLVTLVVAYNDGSKKTIWYQVNRGHDADSYYSDDEMNENYIGSTAFQAALPEGSSLTDSKLTLVYQASSDGAYAFNGNALSSGTPQGTFSGSNTWDVKDSLKSSGTNTLTYDRTASFYKSVLGILTAEYTTSSSGDSTDDTPADNTTDNGSAGDTTDDISSDNTTNDTSSDNTTSDVPAGNTTNDTPADNTTDAKFSADLGVQAIKVSHNSAAKAWKNLVNTVNVTVINNGPEKAGSFALELYSEGSLLESKPINGLANGATEAVEFVWKPEDAKNYTLRAVVVPGSTINDANATNNELSKTQEVMHNGYIGDKPLETYLHGTVKGNIIYDYGNSSYVKVSSGDVYTAGHSLSLPEGAIVKYARLYNFWTWSATGSSGVIPSMSLDFAGSSLTPEAEYADQKGWGQYDYPTGTWAYNVTGLVSGSGNYITTVKNTNSDAENSFCIDGIALLVVYEDASGKETQYWINEGCDAVSTMSSSGGLTPDEATVKIAFAGDSIDLGNVDNARLWTTVQSGGHEGIALKFNEMSISGVYDSTPSSNLDIDEARDVTSYLLSQNNEAQIIAPSVTDNSGDYMIPSSAILAVSYKSETTDDTNITDDTNVTDDTNVTDGTNVTDDTNVTDGTNVTNDTNVTNDTNVTNDTNVTNDTNVTNDTNVTNDTNVTDDTNVTDGTNVTDGTNVTIDTNVTIDTNVTIDTNVTDNTNVTDDTNMKDDTNVTLKVNIIPVISLTVSPDSLDFGTVSPGTPSESLPLALKNNGGISIKVTAEVHDQENGPFATGLLLDQNIWSNYSKVLAAESAETSQAQLDLPLNYSSTGQFQGTLSLWAEAA | failed
2 | MCTSLTLETKNGQHLFARTMDFTLDMNQEVIIIPRHYQWNNITGEIINTKHATVGMGINHQGRIIMADGVNEAGMTCATLYFPGFATYSQSIDDNTTNLAPFDFVTWSLTQFNSVKELKKSVDSITFLDIPLPDLGLTPPLHWILADKWGDCIVLDPTSEGLKLYDNPLGVMTNSPEFNWHLQNLRQYIGLKSQPFAPTEWSNLPLSAFGQGSGSMGLPGDFTPPSRFVRAAYGKQNIQGIDSEEEGVSALFHILSNCEVPKGGVITEEGALDNTIYTSVMCMESGTYYYHTYDCRQIIAVHLFHENLDTDEIKAYPFQRKQKIFYEN | failed
3 | MCYHLIIDSFIDRISRMHTQRGLEVTTGSIEAVDSINYFHEQVLSSGQNAIQILDSAKKHTDNLLIQTYAAAFYLYAQEDVANEQASDYLQSAFRLLTSANEREKLIFEAVTNWSKRDYANAISLLVTLLERYPRDTLALKFMEWLFYCTGQAFNAEYFLKVCDKCAPENQDESHFLAIHSFALELCGQYSKAKEMAEEAITMNLLTPWAHHTLAHVHLLTSDITGGINRLRDLQKTWEDILPLLKGHNTWHLALFYLANRNEEEVKKLYPHISGALPDTVLEQLDTISLLWRMDMAGLPQDRLLNQVVDHLSTHPLEYYTGFTNAHFIYCLVKSGYKNEADESLKRMKFYACSPSSDALWGDVVLPLCQGIYAFADADYKTALMLMEPVIGECAQLGGSDAQIELFFQTYLLVLIHNKQKDKALQFFTEHLKYYNNTPLSDWWFQSANKA | failed
4 | MDAAVVGGGPAGSLAAILLGKSYDVALFEEHQSAGFPVQCAGLVSDKCYKKLKEHCKAEKAIENHIKGAFFFSPSGKIVLEGRGEAVVVERKILDRLLFERAAERAKVFVKEKARLNGFRIITPSREVSAEKIIGADGVNSTVREHFGFPTMGFFTAVQVEAKFEPLDENCVELYFGGNWSDSFFAYAIPLGDTARIGVVSRSSPLRYLENLMKRHPSVSGRVEGSAVELNAGAIPDRLVKFSKRDVALIGDAAGMVKPYTGGGLYYHLIAAEKLAESFPDLKGYEKSYLKEMGREYRFGYAVRKLYSLPDEKLEQLFSAMADFDFRGVHMDSPSTLIRKAADISFRLLRKPSLAFYLVKSLFLLEHHHHHH | failed
5 | MDAIRIVLKNISQVLLLNNAWTGLFILLGLFIGSWKVGVMALIASVIALLLAKRTNYSEEEINTGLSGFNPVLTAIALTLFLVPKWYSLIIILVAIIITMPIGSAFREFFKPFGVPMLTMPYVFVSWLILLMSFQFKFVNADVNILPNAIQEIQFSGHHIQFINAFLSGFSEIFLLKSVLAGTLILIGIFIASRKAGVYAIVANLIGFLAVIVLGANHDQINEGLFGYNVILTVLALGIAFRTRIQRPISIVLGILLTVVIHAGMTTLLTPYGLPVFTLPFIIATWIMLFAGNQMKAQEI | failed
6 | MDALEIFKTLFSLVMRFSSYLPSNEEISDMKTTELYAFLYVALFGPKKMKEIAEFLSTTKSNVTNVVDSLEKRGLVVREMDPVDRRTYRVVLTEKGKEIFGEILSNFESLLKSVLEKFSEEDFKVVSEGFNRMVEALSREGR | not failed
7 | MDALVEDDICILNHEKAHKRDTVTPVSIYSGDESVASHFALVTAYEDIKKRLKDSEKENSLLKKRIRFLEEKLIARFEEETSSVGREQVNKAYHAYREVCIDRDNLKSKLDKMNKDNSESLKVLNEQLQSKEVELLQLRTEVETQQVMRNLNPPSSNWEVEKLSCDLKIHGLEQELELMRKECSDLKIELQKAKQTDPYQEDNLKSRDLQKLSISSDNMQHAYWELKREMSNLHLVTQVQAELLRKLKTSTAIKKGKSLFTGNH | not failed
8 | MDASTSFAILPSNVKQKTAFPRKINQVKTASWANNCLTGTLDVGHFSCYFVNEKIARVTVNPFGEADLTPSIAAINDTEKQAAVFTETNDHYELQFADKKLIVSKNPFQIIMKQAGKTIFQTEGLAINRDKEHQISIQSKPGTAIFGLGEKTGALNKAGSIISMWNTDVYSPHNKDTVELYQSIPFMIADTEETTYGLFYDNSHRTEFDFQSFEEMYTILAEGGQANLYVIFGEDVKEVVANYTNLTGKTPLPPKWSLGYHQSRYSYTSEEEVERIANTFKEKEIPLDCVFMDIHYMDDFRVFTFNPDTFPNGPELIARLREQNIDVVPIVDPGIKKDVNYSVYQEGIKHHYFCRKLEGAIYYGDVWPGVSAFPDFLSTTVQRWWGDLHQFYTDLGIRGIWNDMNEPSVFNESKTMDLDVVHNMDGKNVTHKEAHNLYGLYMSKATFEGLKRLVPNERPFSLTRAGYAGVQRYSAVWTGDNRSHWEHLEMSLPMIMNLGLSGVAFTGADVGGFSSDCTKEMLIRWTQAGAFLPYFRNHCVQDSIYQEPWAFGLDAEKIVKKYIEMRYTFLPYIYTEFQKTAENGLPIVRPLYMEFKEERDLIQVNDQFMLGENILVAPIVREGQVKRLVRLPKGTWFNYWTKEQVEGGDYIIADAPIDVMPIYIKAGTILPLGTSVQNTKEAQDLALEIYLDNDEASGYVYNDDGKSYQYESGKISKTAFTATFKNGEVQINGDHHGEENLQQKVTTIEVFGKKIDKITRAGI | failed
9 | MDATMVFKRLLGSLGVGAPTVDTVLDPAPVLPGGTLTGQVHLEGGQTDFDIEHITLELVARVEAEHEDGEDEGVVVFDRFTVGGGFRLGAEEPRSVPFRVTLPWETPITELYGQPLGIVLGVRTELAVADAKDKGDLDQLTVTALPVQEAVLEAFGQLGFGFGSADLEYGHIGGTGQQLPFYQEIELVPAPQYADRLNEIELTFLAGPGGLEVVLEADKRGGLLSSGHDAVTRFSVGHHDARDWAAEVEGWVRQLVEHHTTYGAPGTHGHSTPYAGHGHHDPHGNGGRHHDDHRSGPGVGTAVAAGAAGLAVGVVGGMVAAEVVDEVGDFFEGDDEEEDEG | not failed
10 | MDDDPHFDQNVQTVIAKTEAYITESVKAGGTGRALRDAHAKGYGLVRGEVEILDGLPPEYAQGIYATPGTHDALIRFSNGSPHAGADARLGAATGLALKIFDIPGPTLLEDEPDTGTFDYANINGPIFFCNTVEHYLFIQELFLNAPAYFSQGRPGAHRFFTDFVTGKGTLDQDDWAWDEFLAFLRLSKTPPANLLLSSYWTMGAVRHGDYIAKVRITPDPSFAAAVVRRDIDPTSAQEVFRPALEAELQERPYAFDIQVQLCTDLERMPVEDTTVEWPEQLSPSVTVAKLRLPRQDISGPENLEKMDSLSFTPWRVTAEHAPLGNIMRSRKEVYRQSSMELEHHHHHH | failed

From a protein production outcome set (Wang et al. 2014)
